{"source": "patent US20180230225A1", "about": "(LEGEND BIOTECH USA, published 2018)", "data": [{"target": "T1, recombinant human BCMA protein having a C-terminal Fc tag (ACRO Biosystems, Cat No.: BC7-H5254) (human, UniProt Q02223 1-54)", "T1 construct": "Bought protein; Clones were also screened on CHO cells expressing human BCMA (CHO-BCMA); also called CD269; not shown: C-terminal Fc tag", "T1 sequence (looked up)": "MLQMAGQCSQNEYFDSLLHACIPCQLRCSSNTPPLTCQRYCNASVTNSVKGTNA", "assay": "phage ELISA: plate coated with recombinant human BCMA protein (Fc control protein in parallel) or CHO-BCMA cells; phage supernatant, HRP anti-M13, A450", "experimental": "Phage ELISA was performed to identify clones specific to the target antigens. Individual output phage clones were grown in 96-deep-well plate and rescued by M13KO7 helper phage overnight. To identify clones that bind to antigen proteins, 96-well ELISA microtiter plates were coated with recombinant human BCMA protein and Fc control protein respectively in coating buffer overnight at 4° C., and the plates were then blocked with blocking buffer. After blocking, approximately 50 μl per well of phage supernatant from the overnight cell culture was added to the plates for 1.5-hour incubation at 4° C. The plates were washed four times, and the HRP-conjugated anti-M13 monoclonal antibody was added to the plates for 45-minute incubation at 4° C. The plates were again washed five times and substrate solution was added to the wells for developing. Absorption at 450 nm was measured for each well.\nTo identify clones that bind CHO-BCMA cells, the CHO-BCMA cells were blocked with blocking buffer at room temperature for 1 hour. After blocking, approximately 20 μl per well of phage supernatant from the overnight cell culture was added to the cell solutions for 1-hour incubation at room temperature. After the cells were washed 4 times, the HRP-conjugated anti-M13 monoclonal antibody was added for 30-minute incubation at room temperature. The cells were washed five times and substrate solution was then added for developing. The absorption was measured at 450 nm.", "values": [{"binder": "269A37948 (VHH, Llama VHH from an immune phage library; also called anti-BCMA sdAb) VHH: AVQLVESGGGLVQAGDSLRLTCTASGRAFSTYFMAWFRQAPGKEREFVAGIAWSGGSTAYADSVKGRFTISRDNAKNTVYLQMNSLKSEDTAVYYCASRGIEVEEFGAWGQGTQVTVSS", "binding result": "binds"}, {"binder": "269A37915 (VHH, Llama VHH from an immune phage library; also called anti-BCMA sdAb) VHH: EVQLVESGGGLVQAGGSLRLSCAASGRTFSSIVMGWFRQAPGKEREFVGAIMWNDGITYLQDSVKGRFTIFRDNAKNTVYLQMNSLKLEDTAVYYCAASKGRYSEYEYWGQGTQVTVSS", "binding result": "binds"}, {"binder": "269A37953 (VHH, Llama VHH from an immune phage library; also called anti-BCMA sdAb) VHH: EVQLVESGGGMVQAGDSLRLSCVQSTYTVNSDVMGWFRQAPGKEREFVGAIMWNDGITYLQDSVKGRFTIFRDNAKNTVYLQMNSLKLEDTAVYYCAASKGRYSEYEYWGQGTQVTVSS", "binding result": "binds"}, {"binder": "269A37965 (VHH, Llama VHH from an immune phage library; also called anti-BCMA sdAb) VHH: AVQLVESGGGLVQAGDSLRLSCTASGATLTNDHMAWFRQAPGKGREFVAAIDWSGRTTNYADPVEGRFTISRNNAKNTVYLEMNSLKLEDTAVYYCAVLRAWISYDNDYWGQGTQVTVSS", "binding result": "binds"}, {"binder": "269A37936 (VHH, Llama VHH from an immune phage library; also called anti-BCMA sdAb) VHH: EVQLVESGGGVVQAGGSLTVSCTASGFTFDRAVIVWFRQAPGKGREGVSFIKPSDGTIYYIDSLKGRFTISSDIAKNTVYLQMKSLESEDSAVYYCAASPEDWYTDWIDWSIYRWQHWGQGTQVTVSS", "binding result": "binds"}, {"binder": "269A37972 (VHH, Llama VHH from an immune phage library; also called anti-BCMA sdAb) VHH: QVQLVESGGGLVQAGGSLRLSCAASGGTLSKNTVAWFRQAPGKERGFVASITWDGRTTYYADSVKGRFTISRDNAKNTVYLQMNSLKPEDTAVYVCADLGKWPAGPADYWGQGTQVTVSS", "binding result": "binds"}, {"binder": "269A37355 (VHH, Llama VHH from an immune phage library; also called anti-BCMA sdAb) VHH: AVQLVDSGGGLVQPGGSLRLSCVASGGIFVINAMGWYRQAPGKQRELVASIRGLGRTNYDDSVKGRFTISRDNANNTVYLQMNSLEPEDTAVYYCTVYVTLLGGVNRDYWGQGTQVTVSS", "binding result": "binds"}]}, {"target": "T2, recombinant human CD38 protein having a C-terminal His tag (ACRO Biosystems, Cat No.: CD8-H5224) (human, UniProt P28907 43-300)", "T2 construct": "Bought protein; not shown: C-terminal His tag", "T2 sequence (looked up)": "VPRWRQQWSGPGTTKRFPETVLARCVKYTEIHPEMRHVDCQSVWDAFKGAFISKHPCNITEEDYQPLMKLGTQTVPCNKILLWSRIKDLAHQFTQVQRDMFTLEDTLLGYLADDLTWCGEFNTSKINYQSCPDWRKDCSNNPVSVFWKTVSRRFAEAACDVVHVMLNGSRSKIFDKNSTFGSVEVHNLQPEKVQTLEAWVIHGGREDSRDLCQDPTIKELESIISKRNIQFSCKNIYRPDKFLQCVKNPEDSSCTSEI", "assay": "phage ELISA on the recombinant antigen, by a process similar to the one described for BCMA", "values": [{"binder": "38A37330 (VHH, Llama VHH from an immune phage library; also called anti-CD38 sdAb) VHH: QVQLVESGGGLVQAGDSLRLSCAASGRAYATMAWFRQAPGKEREFVAHLRVSGDTTYYTDSVKGRFTISRDNAKNTAYLQMNMLKPEDTAVYYCAAGPYGILAAARVSNPGNYDYWGQGTQVTVSS", "binding result": "binds"}, {"binder": "38A37336 (VHH, Llama VHH from an immune phage library; also called anti-CD38 sdAb) VHH: EVQLVESGGGLVQPGGSLRLSCAASGFTFSSNWMYWVRQAPGKGLEWVATISTDGRGTYYKDSVKGRFTVSRDNAMSTLLLQMNNLKSEDTAVYYCAKEPRVLMAYLRNLGDFGSWGQGTQVTVSS", "binding result": "binds"}, {"binder": "38A37331 (VHH, Llama VHH from an immune phage library; also called anti-CD38 sdAb) VHH: QVKLEESGGGLVQPGESLRLSCSASGSIFKVFRVFAMSWYRQGPGKQRELVASISSGETTTYADSVKGRFTISRDNAKNTAYLQMDSLKPEDTAVYYCNADHTFTGDFWGQGTQVTVSS", "binding result": "binds"}, {"binder": "38A37340 (VHH, Llama VHH from an immune phage library; also called anti-CD38 sdAb) VHH: DVQLVESGGGLVQAGDSLRLSCAASGRTFSSYAMAWFRQAPGKEREIVSSISTSGGITDYADSVKGRFTISKDSAKMNTVYLQMNSLEPEDTAVYYCAARTWYLRTSLQYDYWGQGTQVTVSS", "binding result": "binds"}, {"binder": "38A37334 (VHH, Llama VHH from an immune phage library; also called anti-CD38 sdAb) VHH: EVQLVESGGGLVQAGGSLRLSCAASGLTFSSYIMGWFRQAPGEERELVAEISSGGMTSYADSVKGRFTISRDNAKKTGYLQMNSLKPEDTAVYYCAAPERGSIWYSRYEYKYWGQGTQVTVSS", "binding result": "binds"}, {"binder": "38A37699 (VHH, Llama VHH from an immune phage library; also called anti-CD38 sdAb) VHH: QVQLVESGGGLVQAGGSLRLSCAASGRIFSINAMGWYRQAPGKQRELVAAISTAGSTNYGDSVKGRFTISRDNAKNTVYLQMNSLKPEDTAVYYCNLNFPPYVYWGQGTQVTVSS", "binding result": "binds"}, {"binder": "38A37333 (VHH, Llama VHH from an immune phage library; also called anti-CD38 sdAb) VHH: DVQLVESGGGLVQPGGSLRLSCVASGLTFSSYPMMWVRQAPGKGLEWVSRISDSGGYTNYDDSVKGRFTISRDNAKNTLYLQMNSLTPEDTAVYYCRILGLPTTGQGTQVTVSS", "binding result": "binds"}, {"binder": "38A37326 (VHH, Llama VHH from an immune phage library; also called anti-CD38 sdAb) VHH: EVQLVESGGGLVQAGGSLRLSCAASGRTYAMGWYRQAPGKQRDLVATISGAGNTKYADSVKGRFTISRDNAKNTMYLQMNSLKPEDTAVYYCAAGKWFPAANEYWGQGTQVTVSS", "binding result": "binds"}, {"binder": "38A37719 (VHH, Llama VHH from an immune phage library; also called anti-CD38 sdAb) VHH: QVKLEESGGGSVQTGGSLRLSCAASASIFTRLPMGWYRQAPGKQRELVVGIVPSGRINYADSVKGRFTISRDNAKNTVYLQMNSLRPEDTAVYYCRADTFPLPTWGQGTQVTVSS", "binding result": "binds"}, {"binder": "38A37731 (VHH, Llama VHH from an immune phage library; also called anti-CD38 sdAb) VHH: QVKLEESGGGLVQAGGSLRLSCVASGTIVSISTMGWYRQAPGKQRELVATITRRGRTNYTDSVKGRFTISRDNAKNTVYLQMNSLKPEDTAVYYCNAEVQLDIWASAYDYWGQGTQVTVAS", "binding result": "binds"}]}]}
